Results as given in patent publication US20210230295A1 (HANGZHOU SUMGEN BIOTECH, published 2021).

Tests used:
[1] = target: T1, AXL on the surface of human tumor cells (human, UniProt P30530 26-894); assay: cell-based or functional assay
T1 sequence: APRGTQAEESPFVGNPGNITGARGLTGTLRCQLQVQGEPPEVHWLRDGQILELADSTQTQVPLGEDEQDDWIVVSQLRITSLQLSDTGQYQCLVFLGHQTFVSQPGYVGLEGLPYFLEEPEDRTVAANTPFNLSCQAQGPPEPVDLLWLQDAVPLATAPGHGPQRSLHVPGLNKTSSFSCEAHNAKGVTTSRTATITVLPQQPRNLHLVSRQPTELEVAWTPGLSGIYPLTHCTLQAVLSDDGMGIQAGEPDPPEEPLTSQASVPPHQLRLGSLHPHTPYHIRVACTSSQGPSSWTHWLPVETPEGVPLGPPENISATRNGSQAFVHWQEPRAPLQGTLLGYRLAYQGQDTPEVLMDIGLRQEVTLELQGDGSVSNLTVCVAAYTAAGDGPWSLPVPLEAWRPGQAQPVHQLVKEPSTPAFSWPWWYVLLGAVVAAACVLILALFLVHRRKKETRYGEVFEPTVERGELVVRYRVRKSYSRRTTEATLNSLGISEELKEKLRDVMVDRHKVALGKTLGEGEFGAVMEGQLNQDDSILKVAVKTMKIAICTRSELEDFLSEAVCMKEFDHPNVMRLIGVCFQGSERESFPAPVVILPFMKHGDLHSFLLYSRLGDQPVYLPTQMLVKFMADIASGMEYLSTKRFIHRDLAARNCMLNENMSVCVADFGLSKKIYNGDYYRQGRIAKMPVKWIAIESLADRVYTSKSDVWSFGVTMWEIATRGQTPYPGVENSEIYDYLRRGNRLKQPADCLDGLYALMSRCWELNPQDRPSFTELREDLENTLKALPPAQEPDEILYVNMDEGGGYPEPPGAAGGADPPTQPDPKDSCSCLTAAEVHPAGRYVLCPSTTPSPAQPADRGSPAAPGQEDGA

[2] = target: T2, TROP2 (Beijing Yiqiao Shenzhou Biotechnology Co., Ltd.) (UniProt P09758 27-274); assay: ELISA, protein coated at 1 ug/ml, OD 450 nm
T2 sequence (looked up): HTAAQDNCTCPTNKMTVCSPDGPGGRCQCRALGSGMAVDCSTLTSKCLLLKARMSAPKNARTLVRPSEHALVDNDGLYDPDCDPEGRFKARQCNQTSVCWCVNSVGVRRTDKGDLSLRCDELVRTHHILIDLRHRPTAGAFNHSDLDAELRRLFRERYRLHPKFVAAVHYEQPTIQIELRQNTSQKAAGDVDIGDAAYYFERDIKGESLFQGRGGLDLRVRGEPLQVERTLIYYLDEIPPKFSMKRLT
Description: (§1) Milk (Beijing Bomed Biotechnology Co., Ltd.), BSA (BOVOGEN), CD19 (Beijing Yiqiao Shenzhou Biotechnology Co., Ltd.), TROP2 (Beijing Yiqiao Shenzhou Biotechnology Co., Ltd.), BCMA (ACRO Biosystems), CD47 (Beijing Magpel Biotechnology Co., Ltd.), CD38 (Beijing Yiqiao Shenzhou Biotechnology Co., Ltd.), Gas6 (R&D) and each protein and AXL (ACRO Biosystems) were coated with ELISA plates at 1 μg/ml at 4° C. overnight, respectively. After washing with PBST, 10% fetal bovine serum was added and blocked at 37° C. for 1 hour. The C6G12 antibody prepared in Example 3 was added and reacted at 37° C. for 1 hour. After washing with PBST, horseradish peroxidase labeled goat anti-human IgG secondary antibody (GOAT Anti human (HRP), Thermo Fisher Scientific, #31412) was added and reacted at room temperature for 30 minutes. The plates were repeatedly washed with PBST for 5 times, and dried the residual droplets as possible on absorbent paper. […] (eBioscience, #85-00-420) was added and stood at room temperature (20±5 ) in the dark for 1.5 minutes. […] stop solution was added to each well to stop the substrate reaction. The OD value was read with a microplate reader at 450 nm. The binding abilities of antibodies and proteins were analyzed.

BCMA (ACRO Biosystems) = target: T3, BCMA (ACRO Biosystems) (UniProt Q02223 1-54); assay: ELISA, protein coated at 1 ug/ml, OD 450 nm
T3 sequence (looked up): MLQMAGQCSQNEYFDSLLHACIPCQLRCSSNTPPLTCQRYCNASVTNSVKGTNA
Description: as §1

[3] = target: CD47 (Beijing Magpel Biotechnology Co., Ltd.) (UniProt Q08722 19-139, limits assumed); assay: ELISA, protein coated at 1 ug/ml, OD 450 nm
CD47 (Beijing Magpel Biotechnology Co., Ltd.), sequence (Q08722 19-139 limits assumed): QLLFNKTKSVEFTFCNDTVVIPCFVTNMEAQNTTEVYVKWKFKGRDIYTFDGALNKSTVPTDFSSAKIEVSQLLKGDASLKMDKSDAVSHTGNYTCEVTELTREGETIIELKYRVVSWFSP
Description: as §1

[4] = target: T4, CD38 (Beijing Yiqiao Shenzhou Biotechnology Co., Ltd.) (UniProt P28907 43-300); assay: ELISA, protein coated at 1 ug/ml, OD 450 nm
T4 sequence (looked up): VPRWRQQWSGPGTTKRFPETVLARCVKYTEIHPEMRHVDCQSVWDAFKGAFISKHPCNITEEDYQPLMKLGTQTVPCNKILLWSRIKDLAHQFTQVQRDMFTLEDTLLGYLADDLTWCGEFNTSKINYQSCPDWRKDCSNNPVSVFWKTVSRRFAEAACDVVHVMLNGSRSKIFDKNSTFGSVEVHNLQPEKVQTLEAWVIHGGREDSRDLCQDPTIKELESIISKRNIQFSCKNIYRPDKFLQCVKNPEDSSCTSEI
Description: as §1

[5] = target: T5, CD19 (Beijing Yiqiao Shenzhou Biotechnology Co., Ltd.) (UniProt P15391 20-291); assay: ELISA, protein coated at 1 ug/ml, OD 450 nm
T5 sequence (looked up): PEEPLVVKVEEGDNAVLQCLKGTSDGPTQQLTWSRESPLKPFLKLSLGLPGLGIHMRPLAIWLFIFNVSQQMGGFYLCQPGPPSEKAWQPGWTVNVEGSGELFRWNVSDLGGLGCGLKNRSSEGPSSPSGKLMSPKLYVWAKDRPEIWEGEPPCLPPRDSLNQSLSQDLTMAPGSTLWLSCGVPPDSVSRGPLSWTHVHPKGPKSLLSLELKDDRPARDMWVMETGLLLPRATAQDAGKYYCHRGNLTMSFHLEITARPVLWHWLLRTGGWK
Description: as §1

Gas6 (R&D) = target: T6, Gas6 (R&D) (UniProt Q14393 49-678, limits assumed); assay: ELISA, protein coated at 1 ug/ml, OD 450 nm
T6 sequence (looked up): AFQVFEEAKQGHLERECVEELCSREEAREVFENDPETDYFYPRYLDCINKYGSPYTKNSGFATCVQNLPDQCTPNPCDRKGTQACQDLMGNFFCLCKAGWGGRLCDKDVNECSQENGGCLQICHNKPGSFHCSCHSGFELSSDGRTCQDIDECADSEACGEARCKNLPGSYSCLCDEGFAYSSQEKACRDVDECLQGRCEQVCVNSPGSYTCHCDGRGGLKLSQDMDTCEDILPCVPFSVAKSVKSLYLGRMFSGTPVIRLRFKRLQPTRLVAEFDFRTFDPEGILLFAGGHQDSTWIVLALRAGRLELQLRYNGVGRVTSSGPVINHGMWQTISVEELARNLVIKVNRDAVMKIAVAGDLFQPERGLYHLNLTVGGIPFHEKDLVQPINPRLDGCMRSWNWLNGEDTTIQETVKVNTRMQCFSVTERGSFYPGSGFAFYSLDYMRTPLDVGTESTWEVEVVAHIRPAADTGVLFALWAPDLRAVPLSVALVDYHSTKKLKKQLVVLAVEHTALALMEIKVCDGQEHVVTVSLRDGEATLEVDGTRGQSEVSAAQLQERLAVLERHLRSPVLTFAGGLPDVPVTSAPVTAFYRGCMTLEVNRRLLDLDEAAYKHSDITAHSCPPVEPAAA
Description: as §1

BSA (BOVOGEN) = target: T7, BSA (BOVOGEN) (UniProt P02769 25-607); assay: ELISA, protein coated at 1 ug/ml, OD 450 nm
T7 construct: Specificity control
T7 sequence (P02769 25-607 limits assumed): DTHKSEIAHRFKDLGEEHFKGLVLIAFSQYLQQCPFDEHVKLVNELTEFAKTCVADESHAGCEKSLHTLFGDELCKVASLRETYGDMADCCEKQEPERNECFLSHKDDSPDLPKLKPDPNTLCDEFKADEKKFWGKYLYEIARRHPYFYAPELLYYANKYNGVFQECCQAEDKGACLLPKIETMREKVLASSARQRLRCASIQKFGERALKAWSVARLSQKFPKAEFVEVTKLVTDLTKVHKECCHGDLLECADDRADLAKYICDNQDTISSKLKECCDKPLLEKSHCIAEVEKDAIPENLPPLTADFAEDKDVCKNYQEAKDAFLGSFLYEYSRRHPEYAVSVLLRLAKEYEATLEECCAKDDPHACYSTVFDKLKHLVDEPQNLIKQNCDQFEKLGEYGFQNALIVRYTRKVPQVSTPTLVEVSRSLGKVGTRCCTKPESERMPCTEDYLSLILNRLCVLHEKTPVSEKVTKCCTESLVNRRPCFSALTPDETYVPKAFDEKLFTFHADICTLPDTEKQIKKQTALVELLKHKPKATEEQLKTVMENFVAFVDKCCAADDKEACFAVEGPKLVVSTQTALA
Description: as §1

[6] = target: T8, AXL (Beijing Yiqiao Shenzhou Bio Technology Co., Ltd., 6xHis label, with a molecular weight of 65 Kda) (UniProt P30530 33-449); assay: SPR (BIACORE), C6G12 captured by anti-human IgG-Fc antibody, AXL-His as mobile phase
T8 construct: Bought protein used as the mobile phase in BIACORE; not shown: 6xHis label
T8 sequence (looked up): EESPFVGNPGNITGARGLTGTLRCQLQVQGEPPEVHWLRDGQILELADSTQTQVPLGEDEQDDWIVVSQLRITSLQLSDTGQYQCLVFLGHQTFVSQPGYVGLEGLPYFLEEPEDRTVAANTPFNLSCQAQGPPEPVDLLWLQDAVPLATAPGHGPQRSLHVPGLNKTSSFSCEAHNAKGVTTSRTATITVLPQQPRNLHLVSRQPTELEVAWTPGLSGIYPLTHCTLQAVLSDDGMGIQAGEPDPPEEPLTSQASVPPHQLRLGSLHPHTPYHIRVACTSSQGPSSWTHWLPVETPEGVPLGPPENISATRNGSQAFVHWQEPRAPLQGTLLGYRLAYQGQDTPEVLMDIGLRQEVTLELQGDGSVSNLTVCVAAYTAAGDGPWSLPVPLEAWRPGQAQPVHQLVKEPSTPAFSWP
Description: The antibody affinity was analyzed by BIACORE biomacromolecule interaction analyzer (GE Company). The anti-human IgG-Fc antibody (purchased from Abcam) was coupled to the chip, and used to capture the C6G12 antibody with an antibody concentration set as 0.5 μg/mL and an injection time of 60 seconds. AXL (Beijing Yiqiao Shenzhou Bio Technology Co., Ltd., 6×His label, with a molecular weight of 65 Kda) was taken as the mobile phase, with 6 concentration gradients (1, 0.4, 0.16, 0.064, 0.0256, 0.01024 μg/mL), a binding time of 180 seconds, and a dissociation time of 1200 seconds.

[7] = target: T9, AXL-Fc (fusion protein of human AXL protein extracellular domain-human IgG1 Fc) (human); assay: ELISA, AXL-Fc coated at 1 ug/ml, anti-human Fab-HRP detection
T9 construct: Expressed in CHO-K1 cells
Description: The AXL-Fc prepared in Example 1 was coated on the ELISA plate at 1 μg/ml at 4° C. overnight. After washing with PBST, 10% fetal bovine serum was added and blocked at 37° C. for 1 hour. Different concentrations of the C6G12 antibody prepared in Example 3 were added and reacted at 37° C. for 1 hour. After washing with PBST, horseradish peroxidase-labeled goat anti-human Fab secondary antibody (Goat Anti-human IgG(Fab′)2 (HRP), Abcam) was added and reacted at 37° C. for 30 minutes. The plate was repeatedly washed with PBST for 5 times, and dried to remove residual droplets as possible by absorbent paper. 100 μl of TMB (eBioscience) was added to each well, and stood at room temperature (20±5° C.) in the dark for 1.5 minutes. 100 μl of 2N H₂SO₄ stop solution was added to each well to stop the substrate reaction. The OD value was read with a microplate reader at 450 nm. The binding ability of the C6G12 antibody to AXL-Fc was analyzed.

[8] = target: T9, AXL-Fc (fusion protein of human AXL …); assay: ELISA, AXL-Fc coated at 1 ug/ml, anti-mouse IgG-HRP detection
Description: The AXL-Fc prepared in Example 1 was coated on the ELISA plate at 1 μg/ml at 4° C. overnight. After washing with PBST, 10% fetal bovine serum was added and blocked at 37° C. for 1 hour. Different concentrations of the 6G12 antibodies were added and reacted at 37° C. for 1 hour. After washing with PBST, horseradish peroxidase-labeled goat anti-mouse secondary antibody (Goat Anti-mouse IgGHRP, Abcam) was added and reacted at 37° C. for 30 minutes. The plate was repeatedly washed with PBST for 5 times, and dried to remove residual droplets as possible by absorbent paper. 100 μl of TMB (eBioscience) was added into each well, and stood at room temperature (20±5 ) in the dark for 1.5 minutes. 100 μl of 2N H₂SO₄ stop solution was added to each well to stop the substrate reaction. The OD value was read with a microplate reader at 450 nm. The binding ability of the antibody to AXL-Fc was analyzed.

B1: C6G12 antibody (Chimeric 6G12) (antibody, human IgG1, kappa, V domains shown)
VH: QVQLKQSGPGLVKPSQSLSLTCSVTGFSISSGYYWNWIRQFPGNKLEWMGYRSYDGSNNYNPSLKNRISITRDTSKNQFFLKLNSVTTEDTATYYCARGWLLHYTMDYWGQGTSVTVSS
VL: ELVMTQSPFSNAVTLGTSASISCRSSRSLLHSNGFTYLYWYLQKPGQSPQLLIYQMSNLASGVPDRFSSSGSGTDFTLRISRVEAEDVGVYYCGQNLELPLTFGAGTKLELKR
notes: 6G12 variable regions with a human IgG1 constant region, expressed in CHO-S cells and purified by Protein A; also called chimeric antibody
**Q.** For B1, which “internalization efficiency EC50 on human breast cancer MDA-MB-231 cells (flow cytometry, surface MFI at 4 C against 37 C)” value [1] is on record?
**A.** 0.89 ng/mL

**Q.** What about the “internalization efficiency EC50 on human non-small cell lung cancer A549 cells (flow cytometry, surface MFI at 4 C against 37 C)” value [1] of the same binder?
**A.** 0.61 ng/mL

**Q.** And the “internalization efficiency EC50 on human pancreatic cancer MIA PaCa-2 cells (flow cytometry, surface MFI at 4 C against 37 C)” value [1]?
**A.** 1.3 ng/mL

**Q.** And the “internalization efficiency EC50 on renal clear cell adenocarcinoma 786-O cells (flow cytometry, surface MFI at 4 C against 37 C)” value [1]?
**A.** 1.5 ng/mL

**Q.** Does B1 bind [2]?
**A.** no binding

**Q.** Does B1 bind (BCMA (ACRO Biosystems))?
**A.** no binding

**Q.** Does B1 bind [3]?
**A.** no binding

**Q.** Does B1 bind [4]?
**A.** no binding

**Q.** Does B1 bind [5]?
**A.** no binding

**Q.** Does B1 bind (Gas6 (R&D))?
**A.** no binding

**Q.** Does B1 bind (BSA (BOVOGEN))?
**A.** no binding

**Q.** What about the Kd [6] of the same binder?
**A.** 154 pM

**Q.** And the koff [6]?
**A.** 0.000402 s⁻¹

**Q.** And the kon [6]?
**A.** 2.61e+06 M⁻¹ s⁻¹

**Q.** And the EC50 [7]?
**A.** 19.4 ng/mL

B2: 6G12 antibody (antibody, V domains shown)
VH: B1 VH
VL: ELVMTQSPFSNAVTLGTSASISCRSSRSLLHSNGFTYLYWYLQKPGQSPQLLIYQMSNLASGVPDRFSSSGSGTDFTLRISRVEAEDVGVYYCGQNLELPLTFGAGTKLELK
notes: also called monoclonal antibody 6G12
**Q.** How did the EC50 [8] turn out when B2 was run?
**A.** 669 ng/mL
